{"source": "IntAct's records for PubMed 15949802", "parents": {"B1": {"name": "Peroxisomal targeting signal receptor (Saccharomyces cerevisiae), P35056 (parent)", "chain": "MDVGSCSVGNNPLAQLHKHTQQNKSLQFNQKNNGRLNESPLQGTNKPGISEAFISNVNAISQENMANMQRFINGEPLIDDKRRMEIGPSSGRLPPFSNVHSLQTSANPTQIKGVNDISHWSQEFQGSNSIQNRNADTGNSEKAWQRGSTTASSRFQYPNTMMNNYAYASMNSLSGSRLQSPAFMNQQQSGRSKEGVNEQEQQPWTDQFEKLEKEVSENLDINDEIEKEENVSEVEQNKPETVEKEEGVYGDQYQSDFQEVWDSIHKDAEEVLPSELVNDDLNLGEDYLKYLGGRVNGNIEYAFQSNNEYFNNPNAYKIGCLLMENGAKLSEAALAFEAAVKEKPDHVDAWLRLGLVQTQNEKELNGISALEECLKLDPKNLEAMKTLAISYINEGYDMSAFTMLDKWAETKYPEIWSRIKQQDDKFQKEKGFTHIDMNAHITKQFLQLANNLSTIDPEIQLCLGLLFYTKDDFDKTIDCFESALRVNPNDELMWNRLGASLANSNRSEEAIQAYHRALQLKPSFVRARYNLAVSSMNIGCFKEAAGYLLSVLSMHEVNTNNKKGDVGSLLNTYNDTVIETLKRVFIAMNRDDLLQEVKPGMDLKRFKGEFSF", "partner": "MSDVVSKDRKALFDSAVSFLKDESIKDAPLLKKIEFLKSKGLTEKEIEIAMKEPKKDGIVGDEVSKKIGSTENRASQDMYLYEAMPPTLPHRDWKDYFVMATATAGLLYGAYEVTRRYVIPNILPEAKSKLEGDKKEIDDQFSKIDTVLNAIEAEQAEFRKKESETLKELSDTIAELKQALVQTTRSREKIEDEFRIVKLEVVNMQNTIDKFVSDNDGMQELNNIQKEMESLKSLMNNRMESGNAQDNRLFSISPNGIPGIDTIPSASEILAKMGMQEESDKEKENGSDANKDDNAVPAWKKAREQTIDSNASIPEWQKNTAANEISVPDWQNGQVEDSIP"}}}
{"variants_of": "B1", "conditions": "with pex14_yeast PEX14, P53112"}
{"variant": "W204A", "effect of a mutation on the interaction": "decreasing interaction"}
{"variants_of": "B1", "conditions": "with pex14_yeast PEX14, P53112", "remark": "another data set of the same source"}
{"variant": "W120A;W204A", "effect of a mutation on the interaction": "disrupting interaction"}
